Legend:
[1] = biological target: T1, recombinant human EphB4-Fc fusion protein (human, UniProt P54760 16-539); experiment: competition ELISA on coated hEphB4, competitor biotinylated mEphrinB2 250 ng/mL
T1 construct: extracellular domain; also called hEphB4; hu EphB4-Fc
T1 sequence (looked up): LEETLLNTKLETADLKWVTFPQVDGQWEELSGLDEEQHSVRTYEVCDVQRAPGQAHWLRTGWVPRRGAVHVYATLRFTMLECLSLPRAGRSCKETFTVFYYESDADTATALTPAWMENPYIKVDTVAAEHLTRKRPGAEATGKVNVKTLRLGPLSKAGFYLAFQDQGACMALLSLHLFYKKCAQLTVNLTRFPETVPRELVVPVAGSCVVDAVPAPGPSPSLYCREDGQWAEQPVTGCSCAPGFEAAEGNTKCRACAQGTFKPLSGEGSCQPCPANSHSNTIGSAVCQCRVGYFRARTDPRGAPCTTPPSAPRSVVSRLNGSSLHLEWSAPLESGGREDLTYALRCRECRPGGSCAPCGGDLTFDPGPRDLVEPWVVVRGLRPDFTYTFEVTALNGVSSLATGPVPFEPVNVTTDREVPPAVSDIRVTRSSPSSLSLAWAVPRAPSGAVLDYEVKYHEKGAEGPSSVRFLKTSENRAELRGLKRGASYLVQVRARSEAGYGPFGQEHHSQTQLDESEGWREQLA
Procedure: A 96-well plate was coated with recombinant hEphB4 in PBS o/n at 4° C. (5 μg/mL; 100 μL/well). The next day, the antigen was discarded and the plate blocked with 3% BSA/PBS (300 μl/well) for 2 hrs at room temperature (RT). Blocking solution was discarded and anti-EphB4 Fabs were added to the wells at different concentrations in 1% BSA/PBS and incubated for 30 min at RT. Recombinant biotinylated murine EphrinB2 was added at a final concentration of 250 ng/mL and incubated at RT for a further 30 min. The plate was washed and bound EphrinB2 was detected with Streptavidin-HRP (incubation 30 min at RT) and chemifluorescent substrate.

[2] = biological target: T2, myc-tagged human EphB4 on transfected CHO cells (human, UniProt P54760 16-987); experiment: FACS, inhibition of murine ephrin-B2 binding to CHO-EphB4 cells
T2 construct: whole, on cells; also called CHO-EphB4; CHO-hEphB4; not shown: myc tag
T2 sequence (looked up): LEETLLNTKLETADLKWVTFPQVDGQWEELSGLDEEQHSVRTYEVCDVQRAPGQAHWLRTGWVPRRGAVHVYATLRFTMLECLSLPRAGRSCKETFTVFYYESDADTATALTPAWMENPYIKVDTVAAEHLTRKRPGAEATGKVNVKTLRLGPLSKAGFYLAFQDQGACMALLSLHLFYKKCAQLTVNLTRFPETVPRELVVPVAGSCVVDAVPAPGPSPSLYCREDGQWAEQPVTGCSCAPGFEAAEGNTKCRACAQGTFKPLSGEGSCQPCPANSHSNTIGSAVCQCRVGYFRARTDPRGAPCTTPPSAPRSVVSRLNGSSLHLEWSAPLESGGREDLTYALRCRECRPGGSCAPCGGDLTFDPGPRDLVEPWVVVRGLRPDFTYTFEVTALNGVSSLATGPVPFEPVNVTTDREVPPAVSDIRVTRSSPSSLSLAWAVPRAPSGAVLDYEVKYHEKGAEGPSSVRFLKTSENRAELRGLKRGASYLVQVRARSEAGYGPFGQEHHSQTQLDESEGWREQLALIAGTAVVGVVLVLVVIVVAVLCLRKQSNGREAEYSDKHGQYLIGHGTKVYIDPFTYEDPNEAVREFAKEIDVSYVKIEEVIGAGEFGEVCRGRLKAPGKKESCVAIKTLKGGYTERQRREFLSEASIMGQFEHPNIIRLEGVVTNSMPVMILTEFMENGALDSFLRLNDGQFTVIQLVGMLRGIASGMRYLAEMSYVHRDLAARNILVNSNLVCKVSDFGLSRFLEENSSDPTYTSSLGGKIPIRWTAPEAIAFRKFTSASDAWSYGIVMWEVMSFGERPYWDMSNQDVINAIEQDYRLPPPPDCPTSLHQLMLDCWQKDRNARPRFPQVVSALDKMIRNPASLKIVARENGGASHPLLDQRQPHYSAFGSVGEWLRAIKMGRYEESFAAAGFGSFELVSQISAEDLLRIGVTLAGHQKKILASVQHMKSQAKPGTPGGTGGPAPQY
Procedure: CHO-EphB4 cells were preincubated with matured Fab at different concentrations followed by addition of the ligand, murine ephrin-B2 (extracellular domain, 98% identity to human Ephrin-B2). Receptor-bound ephrin-B2 was then detected via biotinylated anti-mouse ephrin-B2 antibody (R&D Systems) and streptavidin-PE. […] The MOR07310 derivatives perform slightly better than the MOR03641 derivatives. The IC50 values of the x-cloned binders are in the same range as those of their cloning parentals.

IC50 (read off the curve) [1]: ~4 µg/mL | IC50 [2]: 4.7 nM
B1: MOR03641 Fab (Fab, V domains shown)
VH: QVQLVQSGAEVKKPGSSVKVSCKASGGTFSTYAISWVRQAPGQGLEWMGRIIPIFGTANYAQKFQGRVTITADESTSTAYMELSSLRSEDTAVYYCARSSYTILTTYYNYNAMDNWGQGTLVTVSS
VL: DIQMTQSPSSLSASVGDRVTITCRASQNINNFLNWYQQKPGKAPKLLIYGSSILQSGVPSRFSGSGSGTDFTLTISSLQPEDFAVYYCHQVSDTSDTFGQGTKVEIKR
notes: Monomeric HuCAL Fab (VH1A, kappa1), purified, MH-tagged; also called 3541 [sic]

Source: patent US20090137002A1 (published 2009)
